The source of these data is publication PMC10572015.

The target of test [1] is endogenous PTB-containing squid proteins.
In test [2] the target is phosphotyrosine-binding domain (PTB)-containing axonal proteins.

In test [1], “GST–AICD (APP intracellular domain fused to glutathione-S-transferase) (domain or fragment)” came in with a mean anterograde FAT rate, vesicle motility assay in isolated squid axoplasm; 100 nM GST–AICD co-perfused with an excess of Fe65 PTB2-6xHis as competitor (GST–AICD alone 1.20; Buffer X/2 1.64) of 1.4 µm/s and a mean retrograde FAT rate, vesicle motility assay in isolated squid axoplasm; 100 nM GST–AICD co-perfused with an excess of Fe65 PTB2-6xHis as competitor (GST–AICD alone 1.02; Buffer X/2 1.23) of 1.19 µm/s. In test [2], the mean anterograde FAT rate, vesicle motility assay in isolated squid axoplasm perfused with 100 nM GST–AICD (Buffer X/2 1.64) was 1.2 µm/s and the mean retrograde FAT rate, vesicle motility assay in isolated squid axoplasm perfused with 100 nM GST–AICD (Buffer X/2 1.23) was found to be 1.02 µm/s.

In test [2], GST–AICDΔNPTY (domain or fragment) yielded a mean anterograde FAT rate, vesicle motility assay in isolated squid axoplasm perfused with 100 nM GST–AICDΔNPTY (GST–AICD 1.20; Buffer X/2 1.64) of 1.5 µm/s and a mean retrograde FAT rate, vesicle motility assay in isolated squid axoplasm perfused with 100 nM GST–AICDΔNPTY (GST–AICD 1.02; Buffer X/2 1.23) of 1.14 µm/s.
